Measurements as given in US20260275319.

What was measured:
[1] = biological target: T1, PGA(10F) peptide, M. jannaschii MtrA-derived
T1 chain: PGAIDEDPFIIEL

[2] = biological target: T2, M. mazei PGA(15)-Ub with C-terminal His-tag
T2 chain: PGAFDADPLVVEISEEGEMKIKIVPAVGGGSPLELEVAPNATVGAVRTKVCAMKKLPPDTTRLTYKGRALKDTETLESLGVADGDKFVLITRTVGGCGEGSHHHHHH

[3] = biological target: T3, (5)KDPGA(10F) peptide, M. mazei MtrA-derived
T3 chain: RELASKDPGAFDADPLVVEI

[4] = biological target: T4, PGA(5) peptide, M. mazei MtrA-derived
T4 chain: PGAFDADP

[5] = biological target: T5, PGA(10) peptide, M. mazei MtrA-derived
T5 chain: PGAFDADPLVVEI

[6] = biological target: T6, (0)KDPGA(10) peptide, M. mazei MtrA-derived
T6 chain: KDPGAFDADPLVVEI

[7] = biological target: T7, (15)KDPGA(10) peptide, M. jannaschii MtrA-derived, without fluorophore
T7 chain: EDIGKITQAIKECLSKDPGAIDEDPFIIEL

[8] = biological target: T8, M. mazei Ub-(5)KDPGA(15) with N-terminal His-tag
T8 chain: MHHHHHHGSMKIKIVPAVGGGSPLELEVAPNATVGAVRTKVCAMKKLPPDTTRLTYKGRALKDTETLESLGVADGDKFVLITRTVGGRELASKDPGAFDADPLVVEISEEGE

[9] = biological target: T9, PGA(10) peptide, M. jannaschii MtrA-derived
T9 chain: PGAIDEDPFIIEL

[10] = biological target: T10, (15)KDPGA(10F) peptide, M. jannaschii MtrA-derived
T10 chain: T7 chain

B1: M. mazei Adriase with C-terminal His-tag (protein)
chain: TLVIAFIGKNGAVMAGDMREITFEGEKPDREKLEKELYSGSIVTDEEMQKKAEEFGVKITVADCKEKVSERNGVLVGEVSSAEGGVVKKRRLYASAGNFAIAELINTEMTLTSQGKGSNFIAFGNEFTKQVANKCFKDNWTKKSNLQDAVKILILCMETVARKTASVSKQFMIVQTASNADVLKVVEKDRNCGSHHHHHH
With B1 the “ligase activity with M. jannaschii (15)KDPGA(10) and PGA(10F) peptides, fluorescent product on SDS-PAGE” value [1] was “also M. mazei Adriase showed activity when incubated with the M. jannaschii derived peptides”, the “ligation rate coefficient at 25 µM substrate, ligation of Ub-(5)KDPGA(15) with PGA(15)-Ub” value [2] was 0.74±0.05 sec^-1 at 25 µM and the “ligation rate coefficient at 50 µM substrate, ligation of Ub-(5)KDPGA(15) with PGA(15)-Ub” value [2] was 0.88±0.07 sec^-1 at 50 µM. The “ligation rate coefficient at 100 µM substrate, ligation of Ub-(5)KDPGA(15) with PGA(15)-Ub” value [2] was 0.90±0.14 sec^-1 at 100 µM substrate concentration, the “maximum rate of the protein-protein ligation of Ub-(5)KDPGA(15) with PGA(15)-Ub” value [2] was “a maximum rate of 0.92 ligations per enzyme and second” and the “substrate concentration at the half-maximum rate, ligation of Ub-(5)KDPGA(15) with PGA(15)-Ub” value [2] was “the half-maximum rate is observed at a substrate concentration of 2.2 µM each”. The “maximum ligation rate, ligation of (5)KDPGA(10F) with PGA(10), Michaelis-Menten fit” value [3] was “a maximum rate of ~2.25 ligations per enzyme and second”, the “substrate concentration at half maximal reaction speed, ligation of (5)KDPGA(10F) with PGA(10)” value [3] was “The half maximal reaction speed is observed at a substrate concentration of ~9 µM each” and the “ligase activity with PGA(5) as secondary and Ub-(5)KDPGA(15) as primary substrate, SDS-PAGE time course” value [4] was “No Adriase activity was observed with (0)KDPGA(10) or PGA(5) substrates (n.d.; SEQ ID NO: 531 and 529)”. The “maximum ligation rate, ligation of (5)KDPGA(10F) with PGA(10), Michaelis-Menten fit” value [5] was “a maximum rate of ~2.25 ligations per enzyme and second”, the “substrate concentration at half maximal reaction speed, ligation of (5)KDPGA(10F) with PGA(10)” value [5] was “The half maximal reaction speed is observed at a substrate concentration of ~9 µM each” and the “ligase activity with (0)KDPGA(10) as primary and PGA(15)-Ub as secondary substrate, SDS-PAGE time course” value [6] was “No Adriase activity was observed with (0)KDPGA(10) or PGA(5) substrates (n.d.; SEQ ID NO: 531 and 529)”. For the same protein, the “ligase activity with M. jannaschii (15)KDPGA(10) and PGA(10F) peptides, fluorescent product on SDS-PAGE” value [7] was “also M. mazei Adriase showed activity when incubated with the M. jannaschii derived peptides”, the “ligation rate coefficient at 25 µM substrate, ligation of Ub-(5)KDPGA(15) with PGA(15)-Ub” value [8] was 0.74±0.05 sec^-1 at 25 µM and the “ligation rate coefficient at 50 µM substrate, ligation of Ub-(5)KDPGA(15) with PGA(15)-Ub” value [8] was 0.88±0.07 sec^-1 at 50 µM. The “ligation rate coefficient at 100 µM substrate, ligation of Ub-(5)KDPGA(15) with PGA(15)-Ub” value [8] was 0.90±0.14 sec^-1 at 100 µM substrate concentration, the “maximum rate of the protein-protein ligation of Ub-(5)KDPGA(15) with PGA(15)-Ub” value [8] was “a maximum rate of 0.92 ligations per enzyme and second” and the “substrate concentration at the half-maximum rate, ligation of Ub-(5)KDPGA(15) with PGA(15)-Ub” value [8] was “the half-maximum rate is observed at a substrate concentration of 2.2 µM each”.

B2: M. jannaschii Adriase with C-terminal His-tag (protein)
chain: SLIICYYGKNGAVIGGDRRQIFFRGSEENRKILEEKLYSGEIKSEEELYKLAEKLNIKIIIEDDREKVRKISDSVVCGEVRSLGIDAKRRRVYATKGKCAIVDILNDTVTNQTIKEGFGIVVLGNRFLKKKAEEELKRTAKLFPMMPIQQIEDAIKEIFEKLKWHPTVSKEYDIYSVNKYEKNFEEVIKKDIESLFKYREQLRKQLIDFGKVMSIVNKIVKNGEIGVIKDGKLHLYDDYIAIDKIDPNPKVFKVVDVEGNFKDGDIVVIENGDMKIKGTNEKVTTKYIIIHKGSHHHHHH
With B2 the “maximum ligation rate, recombination of (15)KDPGA(10F) with PGA(10), Michaelis-Menten fit” value [9] was “maximum rate of ~1.4 ligations per enzyme and second”, the “substrate concentration at half maximal reaction speed, recombination of (15)KDPGA(10F) with PGA(10)” value [9] was “The half maximal reaction speed is observed at a substrate concentration of 23 µM each” and the “maximum ligation rate, recombination of (15)KDPGA(10F) with PGA(10), Michaelis-Menten fit” value [10] was “maximum rate of ~1.4 ligations per enzyme and second”. For the same protein, the “substrate concentration at half maximal reaction speed, recombination of (15)KDPGA(10F) with PGA(10)” value [10] was “The half maximal reaction speed is observed at a substrate concentration of 23 µM each”.
